Test results as given in the supplement of paper PMC10567573.
± gives the standard deviation.

Experiment: protein stability index of a GFP-peptide fusion (GPS, HEK-293T) (PSI 1-6); higher = more stable
[1] = treatment: DMSO, c terminus: native
[2] = treatment: MLN4924 1 uM, 8 h, c terminus: native
[3] = treatment: DMSO, c terminus: a fixed tail appended
[4] = treatment: MLN4924 1 uM, 8 h, c terminus: a fixed tail appended
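Further: 24-mer peptide tiles fused after GFP, lentivirally expressed, FACS-sorted into six equal bins by GFP/DsRed ratio, decoded by Illumina sequencing, PSI is the read-weighted mean bin number.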

| Sequence | protein stability index [1] | protein stability index [2] | protein stability index [3] | protein stability index [4] |
| --- | --- | --- | --- | --- |
| SIQVRRKPQHGVCSQLLGNYRCL [SERPINB9P1] | 2.69 ± 0.51 | 3.09 ± 0.18 |  |  |
| YRFDSSSCSSEDNLSLVCLPRSED [DRICH1] |  |  | 4.46 ± 0.16 | 4.51 ± 0.15 |
| SCAPSASIPKLKLTRPVPAGADLP [PWWP2B] |  |  | 3.21 ± 0.25 | 3.35 ± 0.27 |
| SAASSAAAGEPLECPTCGHSYNVT [RNF208] |  |  | 4.87 ± 0.27 | 4.77 ± 0.24 |
| GGYGFGRGRASGFAGSMFGSVALG [KRT71] |  |  | 3.05 ± 0.6 | 2.96 ± 0.25 |
| QVMVSGPNLNETSIVSGGYGGSGD [ARFIP2] |  |  | 4.24 ± 0.29 | 4.41 ± 0.41 |
| KVLNMWCCCFFKRRKRKTIQRHK [CSNK1G3] | 2.56 ± 0.16 | 2.86 ± 0.22 |  |  |
| GFSCDGTANTFRVMFKEPIEILPN [BTBD1] |  |  | 2.6 ± 0.22 | 2.73 ± 0.31 |
| PAAGRELPPDMTVVPGDHLLEPEV [KCNA3] |  |  | 5.3 ± 0.15 | 5.31 ± 0.08 |
| VKLLVDLELSYGFENGQKAAVVHH [TOR1AIP2] |  |  | 2.22 ± 0.26 | 2.3 ± 0.12 |
| VKTKKNAPSATIHQGEEEGPLDIW [FBXO34] |  |  | 4.21 ± 0.2 | 4.4 ± 0.25 |
| ARRRQSAGPWPRPKGSLSMGPAPR [RASAL3] |  |  | 3.81 ± 0.25 | 4.03 ± 0.33 |
| TRIMIGLTLVFFVQITGQPNILFY [SLC2A12] |  |  | 3.16 ± 0.61 | 3.27 ± 0.35 |
| FHLSLFQGWMNLLNMAKKSVDIVS [PLD5] |  |  | 2.99 ± 1.5 | 1.73 ± 0.94 |
| FKPKNEEPYGHLNPKWTKWLQKLC [PI4K2A] |  |  | 2.88 ± 0.58 | 2.79 ± 0.54 |
| YPPLEGHVRQGVFSSLNHIVEKRV [INTS3] |  |  | 3.17 ± 0.3 | 3.38 ± 0.38 |
| NFLACLASFCVETNNGAGFGLSIL [SCAMP3] |  |  | 3.02 ± 0.55 | 2.99 ± 0.41 |
| LDKSTKLVETAIQSLDEPGGATFL [TRIM63] |  |  | 4.13 ± 0.29 | 4.17 ± 0.28 |
| ERNNIAVRKSRDKAKRRNQEMQQK [CEBPD] |  |  | 3.79 ± 0.9 | 3.31 ± 0.37 |
| VPTCSMCKVFGIHKACEVAPLQSV [TRIM63] |  |  | 2.64 ± 0.32 | 2.73 ± 0.14 |
| STGYCWCVLVDTGRPIPGTSTRYE [SMOC2] |  |  | 2.64 ± 1.8 | 2.12 ± 0.32 |
| VLKLLLLLLLFGVAGGLVACRVTE [LRRC59] |  |  | 2.77 ± 0.73 | 2.68 ± 0.81 |

| Sequence | protein stability index [1] | protein stability index [2] | protein stability index [3] | protein stability index [4] |
| --- | --- | --- | --- | --- |
| QPCNPPAPAGDKGFQPPSPSLRPR [DMRTC1] |  |  | 5.27 ± 0.14 | 5.15 ± 0.19 |
| LGDKGLSDTPYDSSASYEKENEMM [IKZF1] |  |  | 5.37 ± 0.14 | 5.26 ± 0.18 |
| GENAGSLTHIEAQNKIRACGERLS [PDLIM7] |  |  | 4.57 ± 0.26 | 4.62 ± 0.14 |
| SRELEPELRRRRYEYDHWDAAIHG [ALKBH7] |  |  | 3.87 ± 0.25 | 3.92 ± 0.18 |
| DKKTCTKIDYCASSNHGCQHECVN [MATN2] |  |  | 4.11 ± 0.22 | 4.23 ± 0.13 |
| FSNTSELAKDFIRRLLVKDPKRRM [DAPK3] |  |  | 2.36 ± 0.19 | 2.16 ± 0.44 |
| ASSLNGGNIKGIEGHSPGNLPKFC [ZC2HC1A] |  |  | 3.56 ± 0.078 | 4.02 ± 0.15 |
| PEENYPSLQMSSAEMPHTETVSPL [NANOGP8] |  |  | 5.25 ± 0.12 | 5.28 ± 0.18 |
| RWNPWSTEVPYATFTEHPMKYTSE [TPRG1] |  |  | 3 ± 0.6 | 2.74 ± 0.24 |
| DALEDSLEEVAVQQTGDDDEVDDF [PBXIP1] |  |  | 5.59 ± 0.28 | 5.67 ± 0.15 |
| ESRMRIESLSSQLSNLQKESRACL [LMNB1] |  |  | 3.63 ± 0.34 | 3.94 ± 0.12 |
| SETDFETEPETAPTTEPETEPEDD [GNAS] |  |  | 5.69 ± 0.19 | 5.581 ± 0.055 |
| MNVMLKSSPVDLVTATDQKVEKML [IMPA1] |  |  | 3.832 ± 0.018 | 3.96 ± 0.49 |
| HILAAEQLSRDSTLGGKAFHITND [NSDHL] |  |  | 3.39 ± 0.1 | 3.49 ± 0.28 |
| RYDHGTFFPMGDEGASSQIGRAAG [HDAC6] |  |  | 4.24 ± 0.37 | 4.13 ± 0.22 |
| TGVQEVLSALLRATPGEYSVNICG [SPAG8] |  |  | 2.5 ± 0.59 | 2.23 ± 0.16 |
| PSDKMKWCLRVNPKGLDDESKDYL [SPOPL] |  |  | 3.22 ± 0.34 | 3.81 ± 0.47 |
| TLQGLYLVYHPVQLSTPHAVGVLL [DHCR7] |  |  | 3.18 ± 0.49 | 2.97 ± 0.5 |
| KEKDSPFKPKLYKGDRGLPLEGSA [RBBP5] |  |  | 4.57 ± 0.34 | 4.32 ± 0.23 |
| NNHESLDEELHLLIISCRKLFYFK [FBXO39] |  |  | 2.25 ± 0.32 | 2.12 ± 0.16 |
| VQVPEAWEELLTMKVEAKSHLQWQ [ZSCAN9] |  |  | 2.46 ± 0.65 | 2.54 ± 0.26 |
| EILSSRASYSGKAADVWSLGVALF [TRIB3] |  |  | 2.52 ± 0.52 | 2.42 ± 0.39 |

| Sequence | protein stability index [1] | protein stability index [2] | protein stability index [3] | protein stability index [4] |
| --- | --- | --- | --- | --- |
| YSPRRSRGSPRYSPRHSRSRSRT [SRSF1] | 4.18 ± 0.35 | 4.49 ± 0.26 |  |  |
| PSSFPSSSSSSSSSCYPLIPSTPE [MAGEA10] |  |  | 4.32 ± 0.36 | 4.45 ± 0.13 |
| VLMDTQGAFDSQSTVKDCATIFAL [ATL3] |  |  | 2.48 ± 0.35 | 2.55 ± 0.21 |
| STAPGLFLVSTHTGEVRTARALLE [PCDHGC5] |  |  | 2.5 ± 0.27 | 2.54 ± 0.31 |
| RVYDGREILTCGRDGEPEPMQKLQ [RBBP5] |  |  | 4.02 ± 0.38 | 3.94 ± 0.31 |
| LLTLLPQLQEAWQQRTPSPVPGG [RSAD1] | 3.3 ± 0.21 | 2.83 ± 0.54 |  |  |
| THPVTNTTEKQRLVKKLQDSVLER [GOLPH3L] |  |  | 4.13 ± 0.2 | 4.39 ± 0.13 |
| KEAGVQKLILTSSASVIFEGVDIK [NSDHL] |  |  | 2.99 ± 0.3 | 2.84 ± 0.19 |
| CCVDVKPISQEKIESERALISQCG [DUSP5] |  |  | 3.69 ± 0.26 | 3.63 ± 0.22 |
| EEAQPMAAPEGKRSLANGPNAGEQ [EID1] |  |  | 5.16 ± 0.34 | 5.48 ± 0.31 |
| LNSEQAEQLERINDALSCEYECRR [FAM98B] |  |  | 4.54 ± 0.29 | 4.66 ± 0.11 |
| GKSPDTNYLFMGDYVDRGYYSVET [PPP2CA] |  |  | 2.73 ± 0.28 | 2.87 ± 0.17 |
| GGPQRIPAHRFVLAAGSAVFDAMF [BTBD1] |  |  | 2.52 ± 0.31 | 2.2 ± 0.56 |
| LPDNYEIIDSSLEDITYVLKPTFT [USP39] |  |  | 2.87 ± 0.39 | 2.8 ± 0.47 |
| CSQLLESSYFDSFQEAQIKRKARN [CDKL4] |  |  | 3.51 ± 0.56 | 3.528 ± 0.023 |
| AGFTGSGPIQLWQFLLELLSDKSC [ETS2] |  |  | 2.27 ± 0.19 | 2.12 ± 0.41 |
| GLVTAALHMVIVAAFTWAFTLFFE [KMT2E] |  |  | 1.96 ± 0.3 | 1.83 ± 0.29 |
| LNMEEPPVEEPEPKPDRLLVLKVL [SLC19A2] |  |  | 3.5 ± 0.56 | 3.8 ± 0.25 |
| EHKETSRNLHSHYHEAPMTRKHYQ [POMT2] |  |  | 4.09 ± 0.28 | 4.22 ± 0.2 |
| LRKIIDFIYTAKLSLNMDNLQDTL [KLHL13] |  |  | 2.79 ± 0.63 | 2.44 ± 0.78 |
| QQEVVVAGSSLPTSSKVNATVPSN [ACBD3] |  |  | 5.12 ± 0.34 | 4.98 ± 0.23 |
